Holding throughout (assay): ITC; Fep1 (~1.4 mM) injected, 2 µl each time, into Tup11 WT or mutant (~0.2 mM); 25°C; 1×PBS pH 7.4, 150 mM NaCl; iTC200 (MicroCal); Fep1 into buffer subtracted as background
On the technique in general: ITC needs no label: the signal is the heat of the interaction.

Assay [1] addresses Leu524Ala at D-1 and Phe557Ala at R1-2.
Assay [2] concerns the target The remained five residues (Ala substitutions at R1 positions of Tup11).
Assay [3] has as its target T1, S. japonicus Tup11 WD40 domain (301–630) Leu524Ala (S. japonicus, UniProt B6JV84 301-630, Leu524Ala).
T1 construct: Tup11, S. japonicus, WD40 domain, amino acids 301-630
T1 sequence (looked up): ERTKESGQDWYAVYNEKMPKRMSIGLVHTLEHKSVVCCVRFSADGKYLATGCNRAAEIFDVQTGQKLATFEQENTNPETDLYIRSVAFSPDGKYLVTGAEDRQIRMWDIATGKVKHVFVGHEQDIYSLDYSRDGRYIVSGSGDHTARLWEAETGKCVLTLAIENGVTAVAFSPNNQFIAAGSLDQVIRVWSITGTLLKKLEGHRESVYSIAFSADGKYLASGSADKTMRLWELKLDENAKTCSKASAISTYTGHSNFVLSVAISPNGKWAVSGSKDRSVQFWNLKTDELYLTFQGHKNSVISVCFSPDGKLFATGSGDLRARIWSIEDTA
To be noted: both partners purified.

Assay [4] deals with T2, S. japonicus Tup11 WD40 domain (301–630) Phe557Ala (S. japonicus, UniProt B6JV84 301-630, Phe557Ala).
T2 construct: Tup11, S. japonicus, WD40 domain, amino acids 301-630
T2 sequence (looked up): T1 sequence (looked up) with A224L, F257A
To be noted: both partners purified.

Assay [5] concerns the target T3, S. japonicus Tup11 WD40 domain (301–630) Lys575Ala (S. japonicus, UniProt B6JV84 301-630, Lys575Ala).
T3 construct: Tup11, S. japonicus, WD40 domain, amino acids 301-630
T3 sequence (looked up): T1 sequence (looked up) with A224L, K275A
To be noted: both partners purified.

In assay [6] the target is T4, S. japonicus Tup11 WD40 domain (301–630) Tyr426Ala (S. japonicus, UniProt B6JV84 301-630, Tyr426 substituted by Ala).
T4 construct: Tup11, S. japonicus, WD40 domain, amino acids 301-630
T4 sequence (looked up): T1 sequence (looked up) with Y126A, A224L
To be noted: both partners purified.

Assay [7] addresses T5, S. japonicus Tup11 WD40 domain (301–630) Ile601Ala (S. japonicus, UniProt B6JV84 301-630, Ile601Ala).
T5 construct: Tup11, S. japonicus, WD40 domain, amino acids 301-630
T5 sequence (looked up): T1 sequence (looked up) with A224L, I301A
To be noted: both partners purified.

Where a chain is given by its changes, count along the chain named. “And” between values parts separate entries of the source, which are not always exact repeats. Identical values can stand only once.

B1: C-terminal region of S. pombe Fep1 (amino acids 319–564) (domain or fragment, UniProt Q10134 319-564, looked up)
chain: AAGEPDNNGKVYYSYGPTQEQSILPLPENKHEGLPPYQNEYVPNGIRANQVVYPGQLVAVGNDSSKQLSESTTSNTDNNGVATANQSNPLGMKFHLPPILPVGESVCLPPRTSAKPRIAEGIASLLNPEEPPSNSDKQPSMSNGPKSEVSPSQSQQAPLIQSSTSPVSLQFPPEVQGSNVDKRNYALNVLSQLRSQHDLMIQELHNLNQHIQQIDEWLRSSDNENMASEHIKSSTPAVVASGALQT
notes: Fep1, GATA-factor, S. pombe, C-terminal region, amino acids 319-564
On to B1, for which the reduction of binding free energy against wild type was 0.5 kcal/mol and 0.8 kcal/mol in assay [1]; 1 kcal/mol and 1.5 kcal/mol in assay [2]; approximately 1.9 kcal/mol in assay [5]. For the same molecule, the binding result in assay [3], in assay [4], in assay [6] and in assay [7] was “binds” each time.
